Data as given in PMC9320373, “Isolation and Characterization of Cell Envelope Fragments Comprising Archaeal S-Layer Proteins” (Nanomaterials, 2022).

Target: the molecule itself
Assay: negative-stain transmission electron microscopy with 2D image reconstruction; SlaA-enriched sacculi (lipids and SlaB removed by SDS washes) sonicated to fragments, on glow discharged grid, 2% uranyl acetate; Fourier domain processing; p3 hexagonal lattice

B1: S-layer large protein (SlaA) from Saccharolobus solfataricus P2 (natural protein, UniProt Q980C7 36-1231, looked up)
chain: AAIYTIPSVTSVSNTSNIVINLFFNATSNSTVGAQASAFNYGLAINYTLDAITFTVVLPSGTSYPLIKLNAKNFANYGYYDLAHNSIVLLLNTTASSTAKELAYSYEQSIGVTPSASYKIYNYTNKTVNVNQYMNELPLSMLIYMATNGKYNNLASLPVGTKLEFTYAGVTYIIAVSPTVKLVGELLNPLYTANSKMLPGTNYAVGRSNITVAVYDNLITTTTSPFNFTLTYSSLAPALIYWFVIANTTYTNNGASTPTASFQAPPFKQYFPSNSTILYSAAPTKSSILMFNGQMNVTAHENVTLTLQTGTNIYTSPNFNVTPPGNYTFSGKLGVGFNGFIYQNGSATLTATIFNGTINFFFSSTGQKAAFTFFLVPIVPINLGDNNGATVIYNGVSLNTGFPQVVVMFNITGNFTKSGSNYLLYGSVYEAELKPLGSTQLQKLAGATDSTQFVGNLISSASSPLVSYFNYGESTTTITGTSLSFTVLMPLKFIVERLGYIYLVTFHIWGPSATVTVTGVDYHGTQIALGSFRAYVALPSFYTLPKTPLVGLTCDNMYTLAQVSDAGSVLETSTANSNANNATVIGPYDLMSNAGLHVAIYNGSKLVKSGNLGLLPNATTAPITTTITLNGQTVALTYSSAPTAIYPVDFKFEPGFSYSVTTNVIYNTSIPTYVVTVYMPLKYILQTKIVMWYVSPDYAAYFYYSSTGQYQTSNVTLTFANVTPELVMPQVFPVGKLYMPFGINDPYYVFYSSISIGPQSGVIEAVENGFNVGNITSITVELNGMNESIVLSPLNVSKLLISSNLGEVSQCSPLFTTTLFNISALASLLGLPNAAALNGSYLYVTYHDIISGAYVTNRTLLVVGQFYVMPPTTPGSVEWILTAKYINATTGIPVEISYAVVQQPSAKVVDINAANASITQIQVTGVKIVSKYATVTVMYNPSNASTIVYMNGMFVASYGGNLISSLSETSTFGVYYGAVVNLYVATGTLSSPNGTMYVVLGSHKVAVGTANLYTYAGYHFGPYTALPLVSNVTFTVQDPVTHATLTGQTTLGAFNNTPIRLAPLGVSIPQTAQYKVFYYYSTPLVLSPTSQYIVLSVTSVISYPYPFYIETVSFLGYNVTTGTPVPGTPAFQTVYSPSLGPGVVLQVPVQSYQFISLSTPSEPHTVVMFAVPFAGGPAISLYPTFLVYANVTAISS
modifications: glycosylated (sites not given)
notes: SlaA, S-layer large protein of Saccharolobus solfataricus P2; UniProt KB entry Q980C7; Mr 131 kDa as printed; Native protein isolated as an assembled S-layer lattice (sacculi and fragments), not as soluble monomers; also called surface layer large protein; SSO sacculi; source: endogenous, Saccharolobus solfataricus P2; sacculi extracted with sodium lauroylsarcosine and sonication (SEG), washed …
binding result: binds
